Reference: article doi:10.1101/2020.07.02.184341, “Contact with the CsrA core is required for allosteric inhibition by FliW in Bacillus subtilis” (bioRxiv, 2020)

T1: purified untagged wild-type FliW (FliW^WT) (B. subtilis, UniProt P96503 1-143)
T1 construct: FliW, Bacillus subtilis; also called His6-SUMO-FliW^WT before cleavage; source: E. coli Rosetta gami, purified (Ni-NTA, size exclusion chromatography, SUMO tag cleaved)
T1 sequence (looked up): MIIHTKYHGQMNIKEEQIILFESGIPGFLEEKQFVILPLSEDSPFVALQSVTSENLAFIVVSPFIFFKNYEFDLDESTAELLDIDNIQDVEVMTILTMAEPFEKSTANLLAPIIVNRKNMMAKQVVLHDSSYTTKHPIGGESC

T2: purified FliW^K123E (B. subtilis, UniProt P96503 1-143, K123E)
T2 construct: FliW, Bacillus subtilis, with K123E; cloned in pTB146 (SapI/XhoI); source: E. coli Rosetta gami, purified (Ni-NTA, size exclusion chromatography, SUMO tag cleaved)
T2 sequence (looked up): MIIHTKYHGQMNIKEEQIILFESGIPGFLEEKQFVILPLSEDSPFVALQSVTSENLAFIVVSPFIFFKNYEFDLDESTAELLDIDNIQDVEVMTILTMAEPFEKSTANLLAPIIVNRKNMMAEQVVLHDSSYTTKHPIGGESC


Legend:
[1] = biological target: T1, purified untagged wild-type FliW …; assay: pull-down; 0.25 uM GST-CsrA (WT or D41K) on Glutathione-Sepharose beads; FliW at 0.125, 0.167, 0.25, 0.333 and 0.5 uM, 2 h at 4 C in T(0.1) buffer (25 mM Tris-HCl pH 8.0, 20% glycerol, 100 mM NaCl, 1 mM DTT, 1 mg/mL BSA); 4 washes; supernatant and pellet on Western blots; details: both partners purified
[2] = biological target: T2, purified FliW^K123E; assay: as above; details: both partners purified

Row | Binder | binding result [1] | binding result [2]
1 | GST tagged CsrA (GST-CsrA^WT) (natural protein, B. subtilis, UniProt P33911 1-74, looked up, CsrA, Bacillus subtilis, fused to GST; The D41K form was cloned in pGEX-2TK; source: E. coli Rosetta gami, purified (Glutathione-Sepharose, size exclusion chromatography)) MLVLSRKINEAIQIGADIEVKVIAVEGDQVKLGIDAPKHIDIHRKEIYLTIQEENNRAAALSSDVISALSSQKK | binds | –
2 | GST-CsrA^D41K (natural protein, B. subtilis, UniProt P33911 1-74, looked up, CsrA, Bacillus subtilis, with D41K, translational fusion to the GST tag in pGEX-2TK (BamHI/EcoRI); source: E. coli Rosetta gami, purified (Glutathione-Sepharose, size exclusion chromatography)) MLVLSRKINEAIQIGADIEVKVIAVEGDQVKLGIDAPKHIKIHRKEIYLTIQEENNRAAALSSDVISALSSQKK | – | binds
